Assays:
[1] = biological target: T1, human MICA/B endogenously expressed on SW480 cells (human, UniProt Q29983 24-383); experiment: saturation binding of 125I-labelled antibody on SW480 cells, 25,000 cells/well (Scatchard analysis); x axis 'Ab' carries no unit, nM taken from paragraph 587; non-specific binding is nearly as high as specific binding
T1 construct: whole, on cells
T1 sequence (looked up): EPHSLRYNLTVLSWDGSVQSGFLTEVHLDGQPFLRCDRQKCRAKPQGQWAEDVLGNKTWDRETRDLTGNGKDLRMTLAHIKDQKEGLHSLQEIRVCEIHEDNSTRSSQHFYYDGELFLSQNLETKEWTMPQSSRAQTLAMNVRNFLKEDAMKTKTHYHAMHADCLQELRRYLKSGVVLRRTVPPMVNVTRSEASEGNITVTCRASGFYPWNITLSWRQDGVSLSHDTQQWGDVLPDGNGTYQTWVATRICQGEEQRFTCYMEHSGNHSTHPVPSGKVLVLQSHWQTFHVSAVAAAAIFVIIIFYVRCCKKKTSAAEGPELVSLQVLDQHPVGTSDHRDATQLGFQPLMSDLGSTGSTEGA
Method: (§1) Nonspecific binding was determined by binding in the presence of a titration of a 100 fold molar excess of unlabeled antibody and was subtracted from total counts per minute (CPM) to calculate specific binding. A linear standard curve of ¹²⁵I-MICA.36 concentration versus CPM was used to extrapolate specific activity, maximal nM bound ¹²⁵I-MICA.36 and thereby calculate receptor number per cell.
(§2) Specific activity of the iodinated MICA.36 was determined by plotting antibody titrations against the associated CPMs in a standard curve (FIG. 7A). The specific activity was calculated to be 164,214 CPM in 1 nM of ¹²⁵I-MICA.36. The number of receptors per cell was calculated by the following equation: (Bmax)×(Avogadro's number)×(Assay Volume)/# of cells per well.

[2] = biological target: T2, cynomolgus monkey MICA/B clone #4 expressed on CHO cells (cynomolgus monkey); experiment: saturation binding of 125I-labelled antibody on CHO-MICA Cyno #4 cells, 25K per well; fit of total binding, non-specific binding not subtracted
T2 construct: whole, on cells; also called cyno#4; CHO-cyno MICA clone #4
Method: as §1

[3] = biological target: T3, human MICA*008 expressed on CHO cells (human, UniProt Q29983 24-331); experiment: saturation binding of 125I-labelled antibody on CHO-MICA*008 cells, 12,500 cells/well (Scatchard analysis); specific = total minus binding with 100-fold unlabelled antibody; unit from the x axis 'nM Antibody'
T3 construct: also called MICA allele 008
T3 chain: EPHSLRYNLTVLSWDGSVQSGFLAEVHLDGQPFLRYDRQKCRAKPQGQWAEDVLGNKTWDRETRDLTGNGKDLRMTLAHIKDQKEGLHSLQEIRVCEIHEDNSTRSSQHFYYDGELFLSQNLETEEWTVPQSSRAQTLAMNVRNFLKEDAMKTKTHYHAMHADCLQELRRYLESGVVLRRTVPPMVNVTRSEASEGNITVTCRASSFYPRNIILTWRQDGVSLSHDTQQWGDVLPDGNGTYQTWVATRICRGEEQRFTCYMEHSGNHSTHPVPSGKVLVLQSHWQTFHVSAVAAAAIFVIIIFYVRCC
Method: as §1, §2

[4] = biological target: T4, human MICA/B endogenously expressed on 786-O cells (MICA allele *008) (human, UniProt Q29983 24-331); experiment: Scatchard analysis, 125I-MICA.36 on 786-0 cells; 786-0 cells (FIG. 7F)
T4 construct: it speaks of MICA/B, so MICB may be present as well; also called 786-0
T4 chain: T3 chain
Method: as §1, §2

[5] = biological target: T5, cynomolgus monkey MICA/B clone #6 expressed on CHO cells (cynomolgus monkey); experiment: saturation binding of 125I-labelled antibody on CHO-MICA Cyno #6 cells, 25K per well (Scatchard analysis); unit from the x axis 'nM Radioligand'
T5 construct: whole, on cells; also called cyno#6; CHO-cyno MICA clone #6
Method: as §1, §2

Kd [1]: 0.385 nM
Kd of the total-binding curve [2]: 10.2 nM
Kd [3]: 1.07 nM
Kd [4]: ~0.4 nM
Kd [5]: 5.12 nM
B1: MICA.36 (antibody, V domains shown)
VH: QVQLVESGGGVVQPGRSLRLSCAASGFTFSNYAMHWVRQAPGEGLEWVALIWYDGSNKFYGDSVKGRFTISRDNSKNTLYLQMNSLSAEDTAVYYCAREGSGHYWGQGTLVTVSS
VL: AIQLTQSPSSLSASVGDRVTITCRASQGISSALAWYQQKPGKVPKSLIYDASSLESGVPSRFSGSGSGTDFTLTISSLQPEDFATYYCQQFNSYPITFGQGTRLEIK
notes: it says that the name implies no specific constant region; Radioiodinated in the Scatchard assay; also called MICA.36 antibody
